In paper PMC6821365:

Key:
Assay in all cases: ITC
yedK R77A = molecular target: T1, yedK R77A (Escherichia coli (gene from BL21 …, UniProt P76318 2-222, R77A))
T1 sequence: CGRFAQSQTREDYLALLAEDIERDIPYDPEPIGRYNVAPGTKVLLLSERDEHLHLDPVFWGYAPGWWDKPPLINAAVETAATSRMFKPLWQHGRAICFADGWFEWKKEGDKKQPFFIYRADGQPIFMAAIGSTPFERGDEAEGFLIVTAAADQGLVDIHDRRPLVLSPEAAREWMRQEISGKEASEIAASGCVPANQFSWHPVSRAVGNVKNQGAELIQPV

yedK WT = molecular target: T2, yedK WT (Escherichia coli (gene from BL21 …, UniProt P76318 2-222))
T2 sequence: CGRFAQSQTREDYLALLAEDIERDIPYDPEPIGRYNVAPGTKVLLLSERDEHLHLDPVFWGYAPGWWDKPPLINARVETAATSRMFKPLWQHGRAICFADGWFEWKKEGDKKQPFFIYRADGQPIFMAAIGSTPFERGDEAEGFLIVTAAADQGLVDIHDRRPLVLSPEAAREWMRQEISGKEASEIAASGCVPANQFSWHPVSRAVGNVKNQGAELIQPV

yedK S84A = molecular target: T3, yedK S84A (Escherichia coli (gene from BL21 …, UniProt P76318 2-222, S84A))
T3 sequence: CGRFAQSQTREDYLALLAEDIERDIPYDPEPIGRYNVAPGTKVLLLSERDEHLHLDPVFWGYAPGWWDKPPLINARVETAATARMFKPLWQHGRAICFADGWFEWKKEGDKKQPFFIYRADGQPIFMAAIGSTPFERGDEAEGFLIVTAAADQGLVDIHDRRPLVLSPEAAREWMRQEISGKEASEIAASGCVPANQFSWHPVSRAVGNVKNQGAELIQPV

yedK R85A = molecular target: T4, yedK R85A (Escherichia coli (gene from BL21 …, UniProt P76318 2-222, R85A))
T4 sequence: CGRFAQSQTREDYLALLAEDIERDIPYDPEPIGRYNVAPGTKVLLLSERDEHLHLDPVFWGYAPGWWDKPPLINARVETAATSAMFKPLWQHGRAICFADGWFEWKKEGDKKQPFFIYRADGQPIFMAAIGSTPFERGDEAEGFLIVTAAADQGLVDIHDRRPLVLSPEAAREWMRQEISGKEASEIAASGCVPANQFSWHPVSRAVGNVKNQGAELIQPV

yedK W68A = molecular target: T5, yedK W68A (Escherichia coli (gene from BL21 …, UniProt P76318 2-222, W68A))
T5 sequence: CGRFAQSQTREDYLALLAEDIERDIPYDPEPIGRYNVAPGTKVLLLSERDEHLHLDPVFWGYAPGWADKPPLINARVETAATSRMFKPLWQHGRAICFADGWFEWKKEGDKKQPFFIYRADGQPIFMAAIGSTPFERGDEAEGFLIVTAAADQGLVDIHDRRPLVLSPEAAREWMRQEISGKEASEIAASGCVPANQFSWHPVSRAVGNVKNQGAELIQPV

yedK C2A = molecular target: T6, yedK C2A (Escherichia coli (gene from BL21 …, UniProt P76318 2-222, C2A))
T6 sequence: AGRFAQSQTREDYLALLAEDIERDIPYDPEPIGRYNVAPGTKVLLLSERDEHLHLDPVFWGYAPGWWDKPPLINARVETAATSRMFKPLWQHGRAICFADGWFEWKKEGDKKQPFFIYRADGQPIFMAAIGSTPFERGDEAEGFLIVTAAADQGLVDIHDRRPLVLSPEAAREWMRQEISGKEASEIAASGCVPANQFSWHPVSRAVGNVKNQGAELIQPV

yedK W106A = molecular target: T7, yedK W106A (Escherichia coli (gene from BL21 …, UniProt P76318 2-222, W106A))
T7 sequence: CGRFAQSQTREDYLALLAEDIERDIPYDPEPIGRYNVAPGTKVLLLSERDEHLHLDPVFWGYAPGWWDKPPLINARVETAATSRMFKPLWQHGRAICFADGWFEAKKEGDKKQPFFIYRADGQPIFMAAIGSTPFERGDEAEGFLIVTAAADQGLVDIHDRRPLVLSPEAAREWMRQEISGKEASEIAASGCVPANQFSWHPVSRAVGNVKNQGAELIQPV

yedK N75A = molecular target: T8, yedK N75A (Escherichia coli (gene from BL21 …, UniProt P76318 2-222, N75A))
T8 sequence: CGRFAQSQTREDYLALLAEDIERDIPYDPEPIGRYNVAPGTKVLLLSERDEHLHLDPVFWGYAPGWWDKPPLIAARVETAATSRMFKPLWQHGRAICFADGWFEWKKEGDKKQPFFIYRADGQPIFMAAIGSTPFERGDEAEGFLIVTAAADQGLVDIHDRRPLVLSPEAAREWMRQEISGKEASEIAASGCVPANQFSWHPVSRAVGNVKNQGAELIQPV

Binder: CGGTCGATTC (ssDNA) [ssDNA]
- binding result (yedK R77A): no binding
- Kd (yedK WT): 2.2 µM
- Kd (yedK S84A): 10.8 µM
- Kd (yedK R85A): 16.9 µM
- binding result (yedK W68A): no binding
- Kd (yedK C2A): 7.9 µM
- Kd (yedK W106A): 18.7 µM
- Kd (yedK N75A): 37.9 µM
